Measurements taken from the Immune Epitope Database (IEDB).

Columns and labels:
HLA-A*68:02 = test: IEDB peptide-MHC binding, purified MHC/direct/fluorescence; filed as Kd, often an IC50 or EC50 that approximates it; ≥ and ≤ were set here for values at or beyond the usual limits of such assays
HLA-C*07:02 = test: as above
HLA-A*11:01 = test: as above
HLA-B*15:01 = test: as above
HLA-B*57:01 = test: as above
HLA-A*31:01 = test: as above
HLA-B*15:09 = test: as above
HLA-A*26:03 = test: as above; settings: source organism: Variola virus
HLA-B*08:03 = test: as above
HLA-A*69:01 = test: as above
HLA-A*24:03 = test: as above; settings: source organism: Camelpox virus M-96
HLA-B*07:02 = test: as above
HLA-A*01:01 = test: as above
HLA-B*58:01 = test: as above
HLA-A*26:02 [1] = test: as above; settings: source organism: Variola virus
HLA-B*18:01 [2] = test: IEDB peptide-MHC binding, purified MHC/competitive/fluorescence; filed as Kd, often an IC50 or EC50 that approximates it; ≥ and ≤ were set here for values at or beyond the usual limits of such assays; settings: source organism: Vaccinia virus WR
HLA-B*15:17 [3] = test: as above; settings: source organism: Vaccinia virus WR
HLA-A*02:01 [4] = test: as above; settings: source organism: Vaccinia virus WR
HLA-A*03:01 = test: IEDB peptide-MHC binding, purified MHC/direct/fluorescence; filed as Kd, often an IC50 or EC50 that approximates it; ≥ and ≤ were set here for values at or beyond the usual limits of such assays
HLA-B*73:01 = test: as above
HLA-B*44:02 = test: as above
HLA-A*30:01 = test: as above; settings: source organism: Salmonella enterica subsp. enterica serovar Typhi
HLA-B*40:01 = test: as above
HLA-C*06:02 = test: as above; settings: source organism: Salmonella enterica subsp. enterica serovar Typhi str. CT18
HLA-B*08:01 = test: as above
HLA-B*27:05 = test: as above
HLA-A*02:01 [5] = test: as above
HLA-A*26:01 = test: as above
HLA-B*83:01 = test: IEDB peptide-MHC binding, purified MHC/competitive/fluorescence; filed as Kd, often an IC50 or EC50 that approximates it; ≥ and ≤ were set here for values at or beyond the usual limits of such assays; settings: source organism: Mycobacterium tuberculosis variant bovis BCG str. Pasteur 1173P2
HLA-B*15:42 = test: as above; settings: source organism: Mycobacterium tuberculosis variant bovis BCG str. Pasteur 1173P2
HLA-B*45:06 = test: as above; settings: source organism: Mycobacterium tuberculosis variant bovis BCG str. Pasteur 1173P2
HLA-A*03:19 = test: as above; settings: source organism: Mycobacterium tuberculosis variant bovis BCG str. Pasteur 1173P2
HLA-B*48:01 [6] = test: IEDB peptide-MHC binding, purified MHC/direct/fluorescence; filed as Kd, often an IC50 or EC50 that approximates it; ≥ and ≤ were set here for values at or beyond the usual limits of such assays
HLA-B*18:01 [7] = test: as above
HLA-A*29:02 = test: as above
HLA-B*08:02 = test: as above
HLA-B*46:01 = test: as above
HLA-B*15:17 [8] = test: as above; settings: source organism: Marburg virus - Musoke, Kenya, 1980
HLA-B*39:01 = test: as above; settings: source organism: Marburg virus - Musoke, Kenya, 1980
HLA-B*48:01 [9] = test: IEDB peptide-MHC binding, purified MHC/competitive/fluorescence; filed as Kd, often an IC50 or EC50 that approximates it; ≥ and ≤ were set here for values at or beyond the usual limits of such assays; settings: source organism: Orthomarburgvirus marburgense
HLA-A*26:02 [10] = test: as above; settings: source organism: Orthomarburgvirus marburgense
[11] = source organism: Camelpox virus M-96
[12] = source organism: Salmonella enterica
[13] = source organism: Salmonella enterica subsp. enterica serovar Typhi
[14] = source organism: Vibrio cholerae
[15] = source organism: Marburg virus - Musoke, Kenya, 1980
[16] = source organism: Ravn virus - Ravn, Kenya, 1987
[17] = source organism: Mammarenavirus lassaense
[18] = source organism: Mycobacterium tuberculosis

FYLFTFTIY
Kd (HLA-A*68:02; [11]): ≥ 20 µM
Kd (HLA-C*07:02; source organism: Vaccinia virus WR): 2 µM
Kd (HLA-A*11:01; [11]): ≥ 20 µM
Kd (HLA-B*15:01; [11]): ≥ 20 µM
Kd (HLA-B*57:01; [11]): ≥ 20 µM
Kd (HLA-A*31:01; [11]): ≥ 20 µM
Kd (HLA-B*15:09; source organism: Variola virus): ≥ 20 µM
Kd (HLA-A*26:03): ≥ 20 µM
Kd (HLA-B*08:03; source organism: Variola virus): ≥ 20 µM
Kd (HLA-A*69:01; [11]): ≥ 20 µM
Kd (HLA-A*24:03): 1.25 µM
Kd (HLA-B*07:02; [11]): ≥ 20 µM
Kd (HLA-A*01:01; [11]): ≥ 20 µM
Kd (HLA-B*58:01; [11]): ≥ 20 µM
Kd (HLA-A*26:02 [1]): ≥ 20 µM
Kd (HLA-B*18:01 [2]): 3.89 µM
Kd (HLA-B*15:17 [3]): ≥ 20 µM
Kd (HLA-A*02:01 [4]): ≥ 20 µM

RRRQWASCM
Kd (HLA-C*07:02; source organism: Salmonella enterica subsp. enterica serovar Typhi str. CT18): 0.045 µM
Kd (HLA-A*03:01; [12]): ≥ 20 µM
Kd (HLA-A*11:01; [12]): ≥ 20 µM
Kd (HLA-B*73:01; source organism: Salmonella enterica subsp. enterica serovar Typhimurium): ≥ 20 µM
Kd (HLA-B*15:01; [12]): ≥ 20 µM
Kd (HLA-A*31:01; [12]): ≥ 20 µM
Kd (HLA-B*44:02; [12]): ≥ 20 µM
Kd (HLA-A*69:01; [12]): ≥ 20 µM
Kd (HLA-A*30:01): ≥ 20 µM
Kd (HLA-B*40:01; [12]): ≥ 20 µM
Kd (HLA-C*06:02): 0.024 µM
Kd (HLA-B*08:01; [13]): 13.9 µM
Kd (HLA-A*01:01; [12]): ≥ 20 µM
Kd (HLA-B*58:01; [12]): ≥ 20 µM
Kd (HLA-B*27:05; [13]): 0.0774 µM
Kd (HLA-A*02:01 [5]; [12]): ≥ 20 µM
Kd (HLA-A*26:01; [12]): ≥ 20 µM

RWRWFRAAM
Kd (HLA-B*83:01): ≥ 5 µM
Kd (HLA-B*15:42): ≥ 5 µM
Kd (HLA-B*45:06): ≥ 5 µM
Kd (HLA-A*03:19): 0.814 µM

VLKLRFWLI
Kd (HLA-A*03:01; [14]): ≥ 20 µM
Kd (HLA-B*48:01 [6]; [14]): ≥ 20 µM
Kd (HLA-A*11:01; [14]): ≥ 20 µM
Kd (HLA-B*15:01; [14]): ≥ 20 µM
Kd (HLA-B*57:01; [14]): ≥ 20 µM
Kd (HLA-A*31:01; [14]): ≥ 20 µM
Kd (HLA-B*18:01 [7]; [14]): ≥ 20 µM
Kd (HLA-B*44:02; [14]): ≥ 20 µM
Kd (HLA-A*29:02; [14]): ≥ 20 µM
Kd (HLA-B*08:03; [14]): 0.188 µM
Kd (HLA-A*69:01; [14]): ≥ 20 µM
Kd (HLA-B*08:02; [14]): ≥ 20 µM
Kd (HLA-B*40:01; [14]): ≥ 20 µM
Kd (HLA-B*46:01; [14]): ≥ 20 µM
Kd (HLA-B*07:02; [14]): ≥ 20 µM
Kd (HLA-B*08:01; [14]): 0.034 µM
Kd (HLA-A*01:01; [14]): ≥ 20 µM
Kd (HLA-B*58:01; [14]): ≥ 20 µM
Kd (HLA-B*27:05; [14]): ≥ 20 µM
Kd (HLA-A*02:01 [5]; [14]): ≥ 20 µM

THYSGNIVH
Kd (HLA-A*68:02; [15]): ≥ 20 µM
Kd (HLA-B*15:01; [15]): ≥ 20 µM
Kd (HLA-B*57:01; [15]): ≥ 20 µM
Kd (HLA-B*15:09; [16]): 0.046 µM
Kd (HLA-B*18:01 [7]; [15]): ≥ 20 µM
Kd (HLA-B*15:17 [8]): ≥ 20 µM
Kd (HLA-A*69:01; [15]): ≥ 20 µM
Kd (HLA-B*08:02; [16]): ≥ 20 µM
Kd (HLA-B*40:01; [15]): ≥ 20 µM
Kd (HLA-B*46:01; [15]): ≥ 20 µM
Kd (HLA-B*07:02; [15]): ≥ 20 µM
Kd (HLA-B*08:01; [16]): ≥ 20 µM
Kd (HLA-A*01:01; [15]): ≥ 20 µM
Kd (HLA-B*58:01; [15]): ≥ 20 µM
Kd (HLA-B*27:05; [15]): ≥ 20 µM
Kd (HLA-B*39:01): 0.0274 µM
Kd (HLA-A*02:01 [5]; [15]): ≥ 20 µM
Kd (HLA-A*26:01; [16]): ≥ 20 µM
Kd (HLA-B*48:01 [9]): ≥ 20 µM
Kd (HLA-A*26:02 [10]): ≥ 20 µM

QLDQRRALL
Kd (HLA-B*48:01 [6]; [17]): ≥ 20 µM
Kd (HLA-B*15:01; [17]): ≥ 20 µM
Kd (HLA-B*57:01; [17]): ≥ 20 µM
Kd (HLA-B*18:01 [7]; [17]): ≥ 20 µM
Kd (HLA-B*44:02; [17]): ≥ 20 µM
Kd (HLA-A*29:02; [17]): ≥ 20 µM
Kd (HLA-B*08:02; [17]): 15.1 µM
Kd (HLA-B*46:01; [17]): ≥ 20 µM
Kd (HLA-B*08:01; [17]): 0.773 µM
Kd (HLA-B*58:01; [17]): ≥ 20 µM
Kd (HLA-B*27:05; [17]): ≥ 20 µM

QRIAVPVTK
Kd (HLA-B*48:01 [6]; [18]): ≥ 20 µM
Kd (HLA-B*73:01; source organism: Mycobacterium tuberculosis str. Haarlem): ≥ 20 µM
Kd (HLA-B*27:05; [18]): 0.095 µM
